Patent US20240392001A1 (University of Texas, published 2024)
Positions count from the first letter of the chain named.

B1: NeuB2-40 (antibody, V domains shown)
VH: QVQLVQSGAEVKKPGASVKVSCKASGYTFTNYGISWVRQAPGQGLEWMGWISGDAGDTKFAQKFQGRVTMTTDTSTTTTYMELRSLRSDDTAVYYCARDGEYIPMFRGFDNYYGLDVWGQGTTVTVSS
VL: QPVLTQPPSVSEAPRQRVTISCSGSSSNIGKNAVNWYQQFPGKAPKLLIYYDDLLPSGVSDRFSGSRSGTSASLAISGLQSEDEADYYCAAWDDRLKGYVFGTGTQLTVL
notes: also called Ab40; 40-HC/40-LC
B2: NeuB2-60 (antibody, V domains shown)
VH: QVQLQESGPGLVKPSGTLSLTCAVSGGSITSSNWWSWVRQPPGKGLEWIGDISHSGSTNYNPSLKGRVTMSVDRSKNQFFLKLSSVTAADTAMYYCARAFHGMDVWGQGTTVTVSS
VL: QSVLTQPPSVSEAPRQRVTISCSGSSSNIANNAVNWYQQLPGKAPKLLIYYDDLLASGVSDRFSGSRSGTSAALAISGLQSEDEADYYCATWDDDLNGPIFGGGTKVTVL
notes: also called Ab60; 60-HC/60-LC
B3: NeuB2-37 (antibody, V domains shown)
VH: QVQLMQSGAEVKKPGSSVKVSCKASGGTFSSYAISWVRQAPGQGLEWMGGIIPIFGTANYAQKFQGRVTITADESTSTAYMELSSLRSEDTAVYYCARGNHVLRFLEWLPNWFDPWGQGTLVTVSS
VL: not shown
notes: also called Ab37; 37-HC/37-LC
B4: NeuB2-29 (antibody, V domains shown)
VH: QVQLVETGGGVVQPGRSLRLSCAASGFTFSDYAMHWVRQAPGKGLEWVTLISYDGSQKYYADSVKGRFTISRDDSKNTVDLQMNSLKAEDTAVYYCAKFPSLNDNVGFDVWGQGTMVTVSS
VL: QSVLTQPPSVSGAPRERVTISCSGSTSNIENNAVNWYQQLPGKAPKLLIYYDDLVPSGVSDRFSGSKSGTSASLAISGLQSGDEAYYYCAVWDDSLNGPVFGGGTKVTVL
notes: also called Ab29; NewuB2-29
B5: NeuB2-55 (antibody, V domains shown)
VH: EVQLVQSGAEVKKPGSSVKVSCKASGGTFSSYAISWVRQAPGQGLEWMGGIIPIFGTANYAQKFQGRVTITADESTSTAYMELSSLRSEDTAVYYCARGVDQVDYWGQGTLVTVSS
VL: QAVVTQPASVSGSPGQSITISCTGTSSDVGGYNYVSWYQQHPGKAPKLMIYDVSNRPSGVSNRFSGSKSGNTASLTISGLQAEDEADYYCSSYTSSSTPYVFGTGTKVTVL
notes: also called Ab55; 55-HC/55-LC
B6: NeuB2-93 (antibody, V domains shown)
VH: QVQLMQSGAEVKKPGSSVKVSCKASGGRFSSNVMSWVRQAPGQGLEWMGGIIPIFGTPKYAQKFQGRVTITADKSTSTAYMELSSLRSEDTAVYYCASGSTPFDAFDIWGQGTMVTVSS
VL: B5 VL with A2P, V4L, D52E, Y100W, T104G
notes: also called Ab93; 93-HC/93-LC
B7: NeuB2-8 (antibody, V domains shown)
VH: QLQLQESGPGLVKPSQTLSLTCAISGGNVSSKSAAWNWIRQSPSRGLEWLGRTYYRSKWYNDYAVSVKSRITINPDTSKNQFSLQLKSVTPEDTAVYYCARSLGEGWFPYFYGMDVWGQGTTVTVSS
VL: QSVLTQPASVSGSPGQSITISCTGTNRDVGGYDYVSWYQQHPGKAPKLMIYGVSNRPSGISNRFSGSKSGSTASLTISGLQVEDEAAYYCSSYTASRTVVFGGGTKVTVL
notes: Human antibody from a phage library; also called 8-HC/8-LC
B8: NeuB2-80 (antibody, V domains shown)
VH: QVQLVQSGAEVKKPGASVKVSCKASGYTFTSYGISWVRQAPGQGLEWMGWISAYNGNTNYAQKLQGRVTMTTDTSTSTAYMELRSLRSDDTAVYYCARDGGGGYFDYWGQGTLVTVSS
VL: QAVVTQPPSASGTPGQRITISCSGSSSNIGKNIVNWYQQVPGAAPKLLIYNNSQRPSGVPDRFSGSKSGTSASLAISGLQSEDEADYYCAAWDDSLRSWLFGGGTKVTVL
notes: Human antibody from a phage library; also called 80-HC/80-LC
B9: NeuB2-13 (antibody, V domains shown)
VH: QVQLVQSGAEVKKPGASVKVSCKASGYTFTSYYMHWVRQAPGQGLEWMGIINPSGGSTSYAQKFQGRVTMTRDTSTSTVYMELSSLRSEDTAVYYCAREDWGPFDYWGQGTTVTVSS
VL: DIQMTQSPSSLSASVGDRVTITCRASQSISNFVNWYQQKPGEVPKLLIYGASSLQSGVPSRFSGSGSGTDFTLTISSLQPEDFATYYCQQGYSVPLTFGGGTKVEIK
notes: Human antibody from a phage library; also called 13-HC/13-LC
B10: NeuB2-9 (antibody, V domains shown)
VH: QVQLVQSGAEVKKPGASVKVSCKASGYTFTSYAMHWVRQAPGQRLEWMGWINAGNGNTKYSQKFQGRVTITRDTSASTAYMELSSLRSEDTAVYYCARDFMGYCSSTSCYGVTGAFDIWGQGTMVTVSS
VL: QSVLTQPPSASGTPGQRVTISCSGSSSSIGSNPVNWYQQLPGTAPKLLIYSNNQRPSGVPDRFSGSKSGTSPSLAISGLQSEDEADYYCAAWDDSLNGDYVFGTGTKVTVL
notes: Human antibody from a phage library; also called 9-HC/9-LC
B11: NeuB2-128 (antibody, V domains shown)
VH: QVQLQQSGAEVKKPGSSVKVSCKASGGTFSSYAISWVRQAPGQGLEWMGGIIPIFGTANYTQKFQGRVTITADESTSTAYMELSSLRSEDTAVYYCARGPSGSPYGMDVWGQGTTVIVSS
VL: not shown
notes: Human antibody from a phage library; also called 128-HC/128-LC
B12: NeuB2-110 (antibody, V domains shown)
VH: QVQLVESGGGLVKPGGSLRLSCGISGFTFSDYYMSWIRQAPGKGLEWVSFIGTSGSTIYYADSVKGRFTISRDNANNSLFLQMNSLTVEDTAVYYCAREATSGTYFDYWGQGTLVSVSS
VL: B5 VL with D52E, S54T
notes: Human antibody from a phage library; also called 110-HC/110-LC
B13: NeuB2-19 (antibody, V domains shown)
VH: QVQLVESGGGVVRPGGSLRLSCAASGFTFDDYGMSWVRQAPGKGLEWVSGINWNGGSTGYADSVKGRFTISRDNAKNSLYLQMNSLRAEDTALYYCAREGDGAFDIWGQGTLVTVSS
VL: QAVVTQPPSASGTPGQRVTISCSGSGSNIRSNGVTWYQQFPGTAPKLLIYDNNQRPSGVPGRFSGSKSGTSGSLAISGLQSEDEADYYCAAWDDNLNAWVFGAGTQLTVL
notes: Human antibody from a phage library; also called 19-HC/19-LC

What follows are binders tested against T1, LILRB2-chimeric reporter receptor on reporter cells (UniProt Q8N423 22-460) (assay: cell-based or functional assay).
T1 sequence (Q8N423 22-460, change not shown): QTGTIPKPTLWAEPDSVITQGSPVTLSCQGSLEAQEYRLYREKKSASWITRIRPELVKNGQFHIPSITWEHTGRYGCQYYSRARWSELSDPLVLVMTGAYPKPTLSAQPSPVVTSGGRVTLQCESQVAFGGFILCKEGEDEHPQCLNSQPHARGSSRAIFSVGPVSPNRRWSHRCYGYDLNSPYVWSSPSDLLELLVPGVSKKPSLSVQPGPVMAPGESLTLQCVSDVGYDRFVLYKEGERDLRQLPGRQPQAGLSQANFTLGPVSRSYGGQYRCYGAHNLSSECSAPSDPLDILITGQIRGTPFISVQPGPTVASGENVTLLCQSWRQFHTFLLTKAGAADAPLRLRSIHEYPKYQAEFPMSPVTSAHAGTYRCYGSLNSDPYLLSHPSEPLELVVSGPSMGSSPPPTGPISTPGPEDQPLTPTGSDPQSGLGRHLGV

Binder	IC50 (M); GFP signal of LILRB2-chimeric reporter cells on plate-coated oAβ
B1	3.6e-09 M
B2	9.82e-10 M
B3	8.62e-10 M
B4	3.44e-10 M
B5	1.89e-09 M
B6	3.81e-09 M

The binders below were run against T2, LILRB2 (UniProt Q8N423 22-460, limits assumed) (assay: BLI, Octet Red96).
T2 construct: Panning used recombinantly expressed LILRB2-His; also called Leukocyte Immunoglobulin-like Receptor subfamily B member 2; LILRB2-His
Protocol: Kinetic binding parameters (KD, kₒₙ, and koff) were determined using Octet Red96 instrument (ForteBio; Fremont, CA).

T2 sequence (Q8N423 22-460 limits assumed): as the sequence (Q8N423 22-460, change not shown) above

Binder	Kd	koff	kon
B1	19.2 nM	0.00471 s⁻¹	245000 M⁻¹ s⁻¹
B2	24.1 nM	0.00512 s⁻¹	212000 M⁻¹ s⁻¹
B3	8.45 nM	0.0004 s⁻¹	47400 M⁻¹ s⁻¹
B4	9 nM	0.00151 s⁻¹	168000 M⁻¹ s⁻¹
B5	56 nM	0.00723 s⁻¹	129000 M⁻¹ s⁻¹
B6	83.9 nM	0.0103 s⁻¹	123000 M⁻¹ s⁻¹

The binders below were run against T3, LILRB2 expressed on the surface of HEK293T cells (UniProt Q8N423 22-597, limits assumed) (assay: flow cytometry on HEK293T cells expressing LILRB2, MFI fold over control; sheet also prints 95%CI=0.19-0.31 µg/mL).
T3 construct: whole, on cells; also called HEK293T cells that express LILRB2
T3 sequence (Q8N423 22-597 limits assumed): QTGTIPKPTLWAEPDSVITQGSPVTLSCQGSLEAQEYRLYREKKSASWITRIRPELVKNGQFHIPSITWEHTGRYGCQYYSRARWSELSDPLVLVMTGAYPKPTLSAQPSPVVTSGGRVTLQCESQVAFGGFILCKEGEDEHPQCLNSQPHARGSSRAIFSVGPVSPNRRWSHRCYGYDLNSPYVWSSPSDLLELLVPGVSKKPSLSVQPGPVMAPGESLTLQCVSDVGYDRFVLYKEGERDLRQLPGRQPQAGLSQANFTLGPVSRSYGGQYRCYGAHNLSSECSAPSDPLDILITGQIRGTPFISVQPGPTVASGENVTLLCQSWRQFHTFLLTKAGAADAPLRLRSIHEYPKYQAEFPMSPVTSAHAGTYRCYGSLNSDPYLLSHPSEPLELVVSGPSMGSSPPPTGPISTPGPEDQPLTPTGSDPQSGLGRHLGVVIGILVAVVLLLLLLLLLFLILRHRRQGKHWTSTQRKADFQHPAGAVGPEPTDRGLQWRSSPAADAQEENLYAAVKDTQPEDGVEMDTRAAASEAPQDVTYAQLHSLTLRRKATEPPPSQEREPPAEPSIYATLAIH

Binder	EC50
B4	0.24 µg/mL

Target: T1, LILRB2-chimeric reporter receptor on …
Experiment: cell-based or functional assay
Remark: another data set of the same source

Binder	IC50 (M); blocking of PS-LILRB2 interaction
B1	3.54e-10 M
B2	3.21e-10 M
B3	2.93e-10 M
B4	1.42e-10 M
B5	3.35e-10 M
B6	4.45e-10 M

The binders below were run against T4, recombinantly produced LILRB2 extracellular domain (ECD) protein (UniProt Q8N423 22-460, limits assumed) (assay: ELISA, plate-coated LILRB2, anti-human F(ab)2 HRP detection).
T4 construct: extracellular domain; A LILRB2-His protein was used for panning; also called plate-coated LILRB2; LILRB2 ECD
Protocol: Antibody binding affinity to LILRB2 were measured by ELISA. Increasing concentrations of purified LILRB2 antibodies were incubated with plate-coated LILRB2. The bound antibody was detected by anti-human F(ab)2 HRP, and the signals were quantified as OD₄₅₀ values. EC₅₀ values (Table 5) were calculated using non-linear curve fitting function Sigmoidal dose-response (variable slope) in GraphPad Prism.

T4 sequence (Q8N423 22-460 limits assumed): as the sequence (Q8N423 22-460, change not shown) above

Binder	EC50
B1	0.0664 nM
B2	0.161 nM
B3	0.658 nM
B4	0.137 nM
B5	0.175 nM
B6	0.159 nM

What follows are binders tested against T2, LILRB2 (assay: ELISA of phage display clone on LILRB2).

Binder	OD450 in ELISA assay
B1	0.276
B7	0.548
B2	0.744
B3	0.417
B4	0.819
B8	0.64
B9	0.552
B10	0.515
B11	0.446
B5	0.886
B6	0.543
B12	0.972
B13	0.663
